In paper PMC5432616 (The Protein Journal, 2017):

Biological target: the molecule itself
Assay: dynamic light scattering; Zetasizer Nano S, 6 μM enzyme, 50 mM Hepes pH 7.4, 0.5 M NaCl, 25 °C; also with L-Orn and α-KG at saturating concentrations

B1: R217A variant of human ornithine δ-aminotransferase (enzyme, UniProt P04181 26-439, looked up)
chain: TSVATKKTVQGPPTSDDIFEREYKYGAHNYHPLPVALERGKGIYLWDVEGRKYFDFLSSYSAVNQGHCHPKIVNALKSQVDKLTLTSRAFYNNVLGEYEEYITKLFNYHKVLPMNTGVEAGETACKLARKWGYTVKGIQKYKAKIVFAAGNFWGRTLSAISSSTDPTSYDGFGPFMPGFDIIPYNDLPALEAALQDPNVAAFMVEPIQGEAGVVVPDPGYLMGVRELCTRHQVLFIADEIQTGLARTGRWLAVDYENVRPDIVLLGKALSGGLYPVSAVLCDDDIMLTIKPGEHGSTYGGNPLGCRVAIAALEVLEEENLAENADKLGIILRNELMKLPSDVVTAVRGKGLLNAIVIKETKDWDAWKVCLRLRDNGLLAKPTHGDIIRFAPPLVIKEDELRESIEIINKTILSF
notes: the protein as purified is reconstituted with PLP, so probably the holo-form (PLP on Lys292); A start Met from the NdeI site probably precedes T26; also called R217A mutant; dimeric variant R217A; source: E. coli BL21(DE3)pLysS, purified (DEAE Sepharose, Superdex 200)
  stoichiometry N: 2
